Measurements as given in patent US20190135918A1 (ICHNOS SCIENCES, published 2019).
Numbering of substitutions follows the chain as printed.

B1: Chimeric SP34 (antibody, human IgG1, kappa, V domains shown)
VH: EVQLVESGGGLVQPKGSLKLSCAASGFTFNTYAMNWVRQAPGKGLEWVARIRSKYNNYATYYADSVKDRFTISRDDSQSILYLQMNNLKTEDTAMYYCVRHGNFGNSYVSWFAYWGQGTLVTVSA
VL: QAVVTQESALTTSPGETVTLTCRSSTGAVTTSNYANWVQEKPDHLFTGLIGGTNKRAPGVPARFSGSLIGDKAALTITGAQTEDEAIYFCALWYSNLWVFGGGTKLTVLR
notes: IgG1; also called chimeric SP34 antibody; SP34 chimera
B2: VH1/VL2 (antibody, human IgG1, kappa)
heavy: not shown
light: EAVVTQSPATLSVSPGERATLSCRSSTGAVTTSNYANWVQEKPGQAFRGLIGGANKRAPGVPARFSGSLSGDEATLTISSLQSEDFAVYFCALWYSNLWVFGQGTKLEIKRTVAAPSVFIFPPSDEQLKSGTASVVCLLNNFYPREAKVQWKVDNALQSGNSQESVTEQDSKDSTYSLSSTLTLSKADYEKHKVYACEVTHQGLSSPVTKSFNRGEC
notes: IgG1; SP34 series; copies: 2 + 2
B3: VH1/VL15 (antibody, human IgG1, kappa, V domains shown)
VH: EVQLVESGGGLVQPGGSLRLSCAASGFTFNTYAMNWVRQAPGKGLEWVARIRSKYNNYATYYADSVKGRFTISRDDSKNTLYLQMNSLRAEDTAVYYCVRHGNFGNSYVSWFAYWGQGTTVTVSS
VL: EAVVTQSPATLSVSPGERATLSCRSSTGAVTTSNYANWVQQKPGQAFRGLIGGANKRAPGVPARFSGSLSGDEATLTISSLQSEDFAVYFCALWYSNLWVFGQGTKLEIKR
notes: IgG1; also called humanized SP34 VH1/VL15 antibody; copies: 2 + 2
B4: VH1/VL19 (antibody, human IgG1, kappa, V domains shown)
VH: B3 VH
VL: B3 VL with A2I, Q41E, D72T, F90Y
notes: IgG1; also called humanized SP34 VH1/VL19 antibody; copies: 2 + 2
B5: VH1/VL10 (antibody, human IgG1, kappa)
heavy: not shown
light: B2 light with F90Y
notes: IgG1; also called humanized SP34 VH1/VL10 antibody; copies: 2 + 2
B6: VH1/VL11 (antibody, human IgG1, kappa, V domains shown)
VH: B3 VH
VL: B3 VL with Q41E, L69G, D72T
notes: IgG1; also called humanized SP34 VH1/VL11 antibody; copies: 2 + 2
B7: VH1/VL13 (antibody, human IgG1, kappa)
heavy: not shown
light: B2 light with S25A
notes: IgG1; also called humanized SP34 VH1/VL13 antibody; copies: 2 + 2
B8: VH1/VL17 (antibody, human IgG1, kappa)
heavy: not shown
light: B2 light with A2I, S25A
notes: IgG1; also called humanized SP34 VH1/VL17 antibody; copies: 2 + 2
B9: VH1/VL22 (antibody, human IgG1, kappa, V domains shown)
VH: B3 VH
VL: B3 VL with A2I, F90Y
notes: IgG1; also called humanized SP34 VH1/VL22 antibody; copies: 2 + 2
B10: VH1/VL5 (antibody, human IgG1, kappa)
heavy: not shown
light: B2 light with A2I
notes: IgG1; also called humanized SP34 VH1/VL5 antibody; copies: 2 + 2
B11: VH1/VL18 (antibody, human IgG1, kappa)
heavy: not shown
light: B2 light with A2I, Q103G
notes: IgG1; also called humanized SP34 VH1/VL18 antibody; copies: 2 + 2
B12: VH1/VL21 (antibody, human IgG1, kappa)
heavy: not shown
light: B2 light with A2I, F90Y
notes: IgG1 format of the variable domains of m38; also called humanized SP34 VH1/VL21 antibody (IgG1 format); H1L21 IgG1; copies: 2 + 2
B13: humanized SP34 prototype antibody VH1/VL1 (antibody, human IgG1, kappa)
VH: not shown
VL: B2 light with A92Q
notes: Human IgG1; Printed as 'variable heavy chain and light chain'
B14: VH1/VL6 (antibody, human IgG1, kappa, V domains shown)
VH: B3 VH
VL: B3 VL with Q41E, F47P
notes: IgG1; also called humanized SP34 VH1/VL6 antibody; copies: 2 + 2
B15: VH1/VL8 (antibody, human IgG1, kappa, V domains shown)
VH: B3 VH
VL: B3 VL with Q41E, L69G
notes: IgG1; also called humanized SP34 VH1/VL8 antibody; copies: 2 + 2
B16: VH1/VL12 (antibody, human IgG1, kappa)
heavy: not shown
light: B2 light with D72T
notes: IgG1; also called humanized SP34 VH1/VL12 antibody; copies: 2 + 2
B17: VH1/VL16 (antibody, human IgG1, kappa)
heavy: not shown
light: B2 light with A2I, D72T
notes: IgG1; also called humanized SP34 VH1/VL16 antibody; copies: 2 + 2
B18: VH1/VL14 (antibody, human IgG1, kappa, V domains shown)
VH: B3 VH
VL: B3 VL with Q41E, G49L
notes: IgG1; also called humanized SP34 VH1/VL14 antibody; copies: 2 + 2

These binders were tested against T1, human CD3 epsilon 1-26_Fc fusion protein (human) (assay: SPR, human IgG1 format, graded relative to chimeric SP34; one grade for human and cynomolgus protein).
T1 construct: also called human CD3 1-26_Fc fusion protein

| binding result | Binder |
| --- | --- |
| binds | B1 |
| binds | B2 |
| binds | B3 |
| binds | B4 |
| binds | B5 |
| binds | B6 |
| binds | B7 |
| binds | B8 |
| binds | B9 |
| binds | B10 |
| binds | B11 |
| binds | B12 |
| binds | B13 |
| binds | B14 |
| binds | B15 |
| binds | B16 |
| binds | B17 |
| no binding (tested: not printed) | B18 |

These binders were tested against T2, cynomolgus monkey CD3 epsilon 1-26_Fc fusion protein (cynomolgus monkey) in the same assay as above.
T2 construct: also called cynomolgus CD3 epsilon 1-26 Fc fusion protein

| binding result | Binder |
| --- | --- |
| binds | B1 |
| binds | B2 |
| binds | B3 |
| binds | B4 |
| binds | B5 |
| binds | B6 |
| binds | B7 |
| binds | B8 |
| binds | B9 |
| binds | B10 |
| binds | B11 |
| binds | B12 |
| binds | B13 |
| binds | B14 |
| binds | B15 |
| binds | B16 |
| binds | B17 |
| no binding (tested: not printed) | B18 |
